Test results taken from PMC12035558, “Structure of the Saccharolobus solfataricus GINS tetramer” (Acta Crystallographica Section F: Structural Biology …, 2025).

Molecular target: the molecule itself
Experiment: crystal structure; co-expressed and co-purified SsoGINS tetramer, 11 mg/ml in 20 mM Tris pH 8.3, 100 mM NaCl; hanging drop, 0.18 M triammonium citrate, 20%(w/v) PEG 3350, 291 K; space group P6_(3), 2.3 Å

B1: Saccharolobus solfataricus GINS51 (natural protein)
chain: MLDELVKKELSEEEITEIKLEEIIKYITLIKKSKTFVSSEIRKEELKFLSELAESLFELRLSKVLEGKVGKGFDEFIFDIFKILKQFYVDLLTGRYIIYNDKIYCIVQKPLIYNDHRVNEGDVLVLPMREALPLIIASYLTPYKIDIEEQL
notes: GINS51 of Saccharolobus solfataricus, gene amplified from genomic DNA (ATCC 35092D-5); Two copies stand in the (GINS23)2(GINS51)2 tetramer; A subdomain (alpha-helical) comes first, B subdomain (with beta-strands) second; also called SsoGINS51; Sso51
B1: binds.
